From patent publication US20150258192A1, “COMPOSITIONS AND METHODS FOR PREVENTING OR TREATING CHRONIC LUNG ALLOGRAFT DYSFUNCTION (CLAD) AND IDIOPATHIC PULMONARY FIBROSIS (IPF)” (priority 2014, published 2015)
No end group written: not given here.

Columns and labels:
Experiment in all cases: Kinase Profiling Assay
Assay type in all cases: biochemical
Settings in all cases: peptide 100 μM
PKG1α(h) = biological target: T1, PKG1α(h) (Homo sapiens, UniProt Q13976)
T1 sequence (Q13976 1-671): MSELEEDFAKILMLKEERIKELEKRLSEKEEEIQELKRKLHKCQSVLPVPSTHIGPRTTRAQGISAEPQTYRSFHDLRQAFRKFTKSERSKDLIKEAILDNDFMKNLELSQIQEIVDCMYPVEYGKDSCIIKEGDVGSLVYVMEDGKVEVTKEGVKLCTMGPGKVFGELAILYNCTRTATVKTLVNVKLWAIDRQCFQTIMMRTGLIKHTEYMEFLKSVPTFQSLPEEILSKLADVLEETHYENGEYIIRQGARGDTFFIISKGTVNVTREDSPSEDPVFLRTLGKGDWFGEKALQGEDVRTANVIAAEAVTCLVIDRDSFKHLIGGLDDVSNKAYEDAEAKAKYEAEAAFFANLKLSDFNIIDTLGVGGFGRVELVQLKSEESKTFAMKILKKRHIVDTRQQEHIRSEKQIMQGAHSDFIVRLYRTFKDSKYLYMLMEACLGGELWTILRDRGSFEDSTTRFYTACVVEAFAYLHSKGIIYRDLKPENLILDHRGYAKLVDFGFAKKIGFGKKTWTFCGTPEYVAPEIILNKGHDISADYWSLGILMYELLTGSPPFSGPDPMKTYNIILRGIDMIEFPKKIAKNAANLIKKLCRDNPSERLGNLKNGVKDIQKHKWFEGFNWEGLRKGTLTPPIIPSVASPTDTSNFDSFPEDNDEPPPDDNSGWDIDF
Procedure, shortened: (§1)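 Scintillation counting quantifies radiolabeled, positively charged substrate retained on a negatively charged filter after kinase reaction with labeled ATP; inhibitor peptide present.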

Tec(h) activated = biological target: T2, Tec(h) activated (Homo sapiens, UniProt P42680)
T2 construct: purchased Millipore
T2 sequence (P42680 1-631): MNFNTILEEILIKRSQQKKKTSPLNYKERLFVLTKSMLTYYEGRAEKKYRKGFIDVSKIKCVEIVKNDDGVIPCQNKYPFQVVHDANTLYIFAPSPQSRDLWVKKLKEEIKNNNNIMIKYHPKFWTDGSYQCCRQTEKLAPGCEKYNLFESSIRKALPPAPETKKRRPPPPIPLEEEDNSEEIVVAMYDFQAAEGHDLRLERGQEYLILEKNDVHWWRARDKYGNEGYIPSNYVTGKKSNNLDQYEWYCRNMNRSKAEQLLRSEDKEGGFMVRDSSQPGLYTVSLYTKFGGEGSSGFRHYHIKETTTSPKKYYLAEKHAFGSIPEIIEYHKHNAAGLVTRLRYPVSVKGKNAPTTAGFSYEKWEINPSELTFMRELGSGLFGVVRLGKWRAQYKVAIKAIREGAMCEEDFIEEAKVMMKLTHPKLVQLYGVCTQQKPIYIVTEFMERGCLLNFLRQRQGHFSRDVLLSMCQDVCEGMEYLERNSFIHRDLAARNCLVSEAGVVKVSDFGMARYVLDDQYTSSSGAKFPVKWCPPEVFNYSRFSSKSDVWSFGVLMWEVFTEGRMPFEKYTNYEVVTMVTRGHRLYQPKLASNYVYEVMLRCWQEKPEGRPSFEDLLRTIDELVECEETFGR
Procedure, shortened: as §1

SGK3(h) = biological target: T3, SGK3(h) (Homo sapiens, UniProt Q96BR1)
T3 construct: purchased Millipore
T3 sequence (Q96BR1 1-496): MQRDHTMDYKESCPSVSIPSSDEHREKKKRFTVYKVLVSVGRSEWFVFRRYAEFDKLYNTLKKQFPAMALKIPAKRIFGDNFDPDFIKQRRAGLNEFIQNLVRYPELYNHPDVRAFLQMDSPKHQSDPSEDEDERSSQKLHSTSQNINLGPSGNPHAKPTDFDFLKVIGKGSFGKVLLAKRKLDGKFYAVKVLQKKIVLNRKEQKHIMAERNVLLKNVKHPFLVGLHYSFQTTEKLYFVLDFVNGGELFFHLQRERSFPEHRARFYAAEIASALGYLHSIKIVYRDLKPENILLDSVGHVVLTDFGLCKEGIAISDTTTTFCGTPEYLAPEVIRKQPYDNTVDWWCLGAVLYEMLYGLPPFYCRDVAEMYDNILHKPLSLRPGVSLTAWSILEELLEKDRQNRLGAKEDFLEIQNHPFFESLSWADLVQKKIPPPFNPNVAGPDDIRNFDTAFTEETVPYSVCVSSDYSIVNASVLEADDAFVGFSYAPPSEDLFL
Procedure, shortened: as §1

IKKα(h) = biological target: T4, IKKα(h) (Homo sapiens, UniProt O15111)
T4 construct: purchased Millipore
T4 sequence (O15111 1-745): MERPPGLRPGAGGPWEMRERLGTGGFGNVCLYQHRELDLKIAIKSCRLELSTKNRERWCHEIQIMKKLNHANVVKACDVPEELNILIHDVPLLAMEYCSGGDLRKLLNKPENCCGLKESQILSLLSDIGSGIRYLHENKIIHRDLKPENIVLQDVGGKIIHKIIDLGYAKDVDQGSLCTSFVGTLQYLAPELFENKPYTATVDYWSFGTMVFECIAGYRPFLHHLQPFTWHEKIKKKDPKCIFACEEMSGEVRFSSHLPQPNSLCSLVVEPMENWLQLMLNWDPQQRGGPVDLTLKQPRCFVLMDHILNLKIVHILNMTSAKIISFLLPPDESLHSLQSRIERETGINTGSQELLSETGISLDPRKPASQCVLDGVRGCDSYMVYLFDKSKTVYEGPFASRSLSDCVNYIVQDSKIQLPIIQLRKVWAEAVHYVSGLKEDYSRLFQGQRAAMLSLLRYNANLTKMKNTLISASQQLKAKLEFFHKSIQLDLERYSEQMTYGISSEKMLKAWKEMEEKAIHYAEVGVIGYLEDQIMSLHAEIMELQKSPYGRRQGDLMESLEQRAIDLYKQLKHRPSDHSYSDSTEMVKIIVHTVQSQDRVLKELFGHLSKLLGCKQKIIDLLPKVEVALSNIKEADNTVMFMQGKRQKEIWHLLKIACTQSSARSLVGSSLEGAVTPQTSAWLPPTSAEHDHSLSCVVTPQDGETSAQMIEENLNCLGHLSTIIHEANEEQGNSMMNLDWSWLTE
Procedure, shortened: as §1

EGFR(h) = EGFR(h) (Homo sapiens, UniProt P00533)
Procedure, shortened: as §1

FGFR1(V561M)(h) = FGFR1(V561M)(h) (Homo sapiens, UniProt P11362, V561M)
Procedure, shortened: as §1

Sequence of FGFR1(V561M)(h) (P11362 22-822 V561M): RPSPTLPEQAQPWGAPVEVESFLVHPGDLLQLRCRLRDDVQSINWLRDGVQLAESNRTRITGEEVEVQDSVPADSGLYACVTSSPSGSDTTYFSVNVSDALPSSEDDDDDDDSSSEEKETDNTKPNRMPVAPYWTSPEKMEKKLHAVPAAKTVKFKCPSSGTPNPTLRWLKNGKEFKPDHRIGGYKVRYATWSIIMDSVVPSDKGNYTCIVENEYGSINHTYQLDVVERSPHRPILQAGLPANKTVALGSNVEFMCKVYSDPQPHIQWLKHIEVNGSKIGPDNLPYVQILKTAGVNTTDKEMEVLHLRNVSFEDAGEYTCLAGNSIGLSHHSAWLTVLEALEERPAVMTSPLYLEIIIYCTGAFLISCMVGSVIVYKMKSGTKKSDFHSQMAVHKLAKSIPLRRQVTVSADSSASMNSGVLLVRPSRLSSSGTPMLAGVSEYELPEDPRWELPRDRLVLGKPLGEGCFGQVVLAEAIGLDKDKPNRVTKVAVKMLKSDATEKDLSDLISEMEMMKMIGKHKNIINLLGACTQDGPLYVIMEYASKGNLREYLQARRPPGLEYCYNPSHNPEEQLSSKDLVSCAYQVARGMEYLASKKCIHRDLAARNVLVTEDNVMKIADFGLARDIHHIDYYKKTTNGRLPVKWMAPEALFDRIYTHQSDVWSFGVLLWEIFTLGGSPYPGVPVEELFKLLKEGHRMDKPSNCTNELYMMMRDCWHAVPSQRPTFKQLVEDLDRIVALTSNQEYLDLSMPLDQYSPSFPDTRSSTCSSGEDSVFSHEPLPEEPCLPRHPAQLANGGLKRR

With “HRRIKAWLKKIKALARQLGVAA (Mammal) [MMI-0500]” the “% activity” value (PKG1α(h)) was 25%, the “% activity” value (Tec(h) activated) was 33% and the “% activity” value (SGK3(h)) was -3%. For the same sequence, the “% activity” value (IKKα(h)) was 50% and the “% activity” value (EGFR(h)) was -1%.

With “YARAAARQARAKALNRQLGVA (Mammal) [MMI-0200]” the “% activity” value (PKG1α(h)) was 70%, the “% activity” value (Tec(h) activated) was 77% and the “% activity” value (SGK3(h)) was 58%. For the same sequence, the “% activity” value (EGFR(h)) was 83% and the “% activity” value (FGFR1(V561M)(h)) was 72%.

For YARAAARQARAKALARQLGVAA [MMI-0100], the “% activity” value (PKG1α(h)) was 82%, the “% activity” value (Tec(h) activated) was 100% and the “% activity” value (SGK3(h)) was 95%. The “% activity” value (IKKα(h)) was 108% and the “% activity” value (FGFR1(V561M)(h)) was 108%.

With FAKLAARLYRKALARQLGVAA [MMI-0300] the “% activity” value (PKG1α(h)) was 64%, the “% activity” value (Tec(h) activated) was 56% and the “% activity” value (SGK3(h)) was 10%. The “% activity” value (IKKα(h)) was 93%, the “% activity” value (EGFR(h)) was 21% and the “% activity” value (FGFR1(V561M)(h)) was 74%.

KAFAKLAARLYRKALARQLGVAA [MMI-0400] was tested, and the “% activity” value (PKG1α(h)) was 58%, the “% activity” value (Tec(h) activated) was 29% and the “% activity” value (SGK3(h)) was 8%. For the same sequence, the “% activity” value (IKKα(h)) was 87%, the “% activity” value (EGFR(h)) was 16% and the “% activity” value (FGFR1(V561M)(h)) was 74%.
